The nanobody polyreactivity screen of Harvey et al. (2022)

Assay: yeast display, Sf9 membrane polyspecificity reagent, FACS + sequencing; frameworks hold sequencing errors
Summary of the method: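 After 36–48 hours of galactose induction, yeast (Saccharomyces cerevisiae BJ5465) displaying a synthetic nanobody library were stained at 4 °C for 1 hour with 10% biotinylated, detergent-solubilized Sf9 membrane reagent. Streptavidin microbeads enriched the stained cells before FACS sorting into low and high (top ~1%) gates on anti-HA and streptavidin fluorescence. Each clone's polyreactivity label reflects its gate of origin.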

Sequence | polyreactivity (PSR sort gate)
QVQLVESGGGLVQAGGSLRLSCAASGRTYGGNAMGWYRQAPGKERELVAAITVSAGHTYYADSVKGRFTISRDNAKNTVYLQMKSLKPEDTAVYYCAKVYHWYYSYDYWGQGTQVTVSS | low polyreactivity
QVQLVESGGGLVQAGGSLRLSCAASGFIFRYYAMGWYRQAPGKERELVAAISSSGGCTYYADSVKGRFTISRDNSKNTVYLLMNRMKPEDTAVYFCAARDLRKLFSLYPYYYWGQGTHVTVSS | high polyreactivity
QVQLVESGGGLVQAGGSLRLSCAAYGSTFRSYAMGWYRQAPGKERELVAAISYSGDSTYYADSVKGRFTISRDNAKNTVYLQMNSLKPEDTAVYYCAALRDWDFQCEPWKRYGYWGQGTLVTVSS | low polyreactivity
QVQLVESGGGLLQAGGSLRLSCAASGRTFGYYAMGWYRQAPGKERELVAAISKSGGRTYYADSVKGRFTISRDNAKNTVYLQMNSLKPEDTAVYYCAADGGAIVPYYENYYWGQGTQVTVSS | high polyreactivity
QVQLVESGGGLVQAGGSLRLSCAASGLIFTPYPMGWYRQAPGKERELVAAISVSGGRTYYADSVKGRITISRDNEKNTVYLQMNSLKPEDTAVYYCAASDRYGGRDYWGQGTQVTVSS | high polyreactivity
QVQLVESGGGLVQAGGSLRLSCAASGRIFWYYAMGWYRPAPGKERELVATISYGGGNTYYADSVKGRFTISRDNAKNTVYLQMNSLKPEDTAVYYCARVPYAYLPYKPFQQYSYDYWGQGTQVTVSS | high polyreactivity
QVQLVESVGGLVQAGGSLRLSCAASGSIFTRNTMGWYRQAPGKERELVAAISGGGSSTYYADSVKGRFTISRDNAKNTVYLQMNSLKPEETAVYYCAASLSRNYGYACYEYWGQGTQVTVSS | high polyreactivity
QVQLVESGGGLVQAGASLRLSCAASGNIFGLYAMGWYRPAPGKERELVAAISDGVSTNYADSVKGRFTISRDNAKITVYLQMNSLKPEDTAVYYCAADQEGYGNWDSEYDYWGQVTQVTVSS | low polyreactivity
QVQLVESGGRLVQAGGSLRISCDASGFIFVRNAMGWSRQAPGTEWELVAASTLCTGSTYYADSVKGRFTISRDNAKITVYLQMKSLKPEDTAVYYCNANKRIRPYRPGMDYWGHGTQVTVSS | high polyreactivity
QVQLVESGGGLVQAGGSLRLSCAASGRNFKPNVMGWYRQAPGKERELVAAISWSGGASTYYADSVKGRFTISRDNAKNTVYLQMNSLKREDTAVYYCNAAKRNRYDYWGQGTQVTVSS | low polyreactivity
QVQLVESGGGLVQAGGSLRLSCAASGYTFNWYAMGWYRQAPGKERELVAAISWRSGRTYYADSVKGRFTISRDNAKNTVYLQMNSLKPEDTAVYYCAVTTTSGAPGGSYYYWGQGTQVTVSS | high polyreactivity
QVQLVESGGGLVQAGGSLRLSCAASGRIFYQNALGWYRQAPGKERELVADITSGGSTYYADSVKGRFTISRDNAKNTVYLQMNSLKPEDTAVYDCNTPSGPGTVGSYRRKWYGYWGQGTQVTVSS | low polyreactivity
QVQLVESGGGLVQAGGSLRLSCAASGRTFIENAMGWYRQAPGKERELVAAISRGGSTYYADSVKGRFTMSRDNAKNTVYLQMNSLKPEDTAVYYCAADYFYLFHYSSQKYSRYEYWGQGTQVTVSS | low polyreactivity
QVQLVESGGGLVQAGGILRLSCAASGRIFAYYAMGWSRQAPGKERELVAAISGGGGSTYYADSVKGRFTISRDNAKNTVYLQMNSLKPEDTAVYYCAAKSSRYDYYYWGQGTQVTVSS | high polyreactivity
QVQLVESGGGLVQAGGSLRLSCAASGYTFPQYAMGWYRQAPGKERELVAAITRRGGSTYYADSVKGRFTISRDNAKNTVYLQMNSLKPEDTAVYYCASDSYPYSLGGDYWGQGTQVTVSS | high polyreactivity
QVQLVESGGGLVQAGGSLSLSSAASGSIFVGNAIAWYRQAPGKERELVATISWSCGSTYYADSVKGRFTISRDYAKNNVYLQMNSRKPEDTAVYYCAAEFGGYDPYDYWGQGTQVTVSS | low polyreactivity
QVQHVESGGGLVQAGGSLRLSCAASGRIFGYYTMGWYRQAPGKERELVATIDWSGDSTYYADSVKGRFTISRDNAKNTVYLQMNSLKPEDTAVYYCAKRYYLYHYDSWGQGTQVTVSS | low polyreactivity
LVQLQESGGGLVQEGGSLRMSCAASGTISPGGYMGWYRQAPGKERELVASINVGGSTNYADSVKGRFTISRDNAKNTVYLQMNSLKPEDNAVYYCAVWGRNRLQLSYWGQGTQVTVSS | low polyreactivity
QVQLVESGGGLVQAGGSLRLSCAASGRIFPWYTMGWYRQAPGKERELVAAITSGGNTDYADSVKGRFTISRDNAKNSVYLQMNSLKPEETAVYYCAAGGYPGTTYYGYDYWGQGTQVTVSS | low polyreactivity
QVQLVESCGGLVKAGGSLRLSCDASGSTFYNNAMGWYRQAPGKERELVAVITSGGGSTYYADSVKGRFTISRDNAKNTVYLQMNSLKPEDTAVYYCAAKRPFYKYLWLDVRGNYWGQGTQVTVSS | low polyreactivity
QVQLVESGGGLVQAGGSLRLSCAASGNIFLYYAMGWYRQAPGNERELVADIDSSGASTYYADSVKGRFTISRDNAKNTVYFQMNSLKPEDTAVYYCASEFHWWYAGYDYGYWGQGTQVTVSS | low polyreactivity
QVQLVESGGGLVQAGGSLRLSCAASGRTFKTYARGWYREAPGKERELVAAISRDGRTYYADSVKGRFTISRDNAKNTVYLQRNSLKPEDTAVYYCAVGIYDHLYNHEYWGQGTQVTVSS | low polyreactivity

Sequence | polyreactivity (PSR sort gate)
QVQLVESGGGLVQAGGSLRLSCAASGSTFVYYAMGWYRQAPGKETEFVAAISISSGSTYYADSVKGRFTISRDNAKNTVYLQMNSLKPEDTAVYYCAVDWFLGGYDDLDYWGQGTQVTVSS | low polyreactivity
QVQLVESGGGLFQAGGRLRLSCAPSGGTLPKYAMAWYRHAPGKERELVARITWNDGTTYYADSVKGRFTISRDNAKNTVYLQMNSLIPEDTAVYYCNTDRAYWFLYPFSYYYWGQGTQVTVSS | low polyreactivity
QVKLVESVGGLVQAGGSLRFSCAASANTFYYYAMGWYREAPGNDMELVASITWRVGDTYYADSVKGRFTIARDNAKNTVYLQMNSLKPEDTAVYYCAKPRLGRYDSLSYLGDYPGYDYWGQGTQVTVSS | low polyreactivity
QVQLVVSGGGLVQAGGSLRLSCAASGSILDSNAMGWYRQAPGKERELVAAITSGGSTYYADSVKGRFTISRDNAKNTVYLQMNSLKPEDTAVYYCNANGVQYFLYGYWGQGTQVTVSS | low polyreactivity
QVQLVESGGGLVQAGGSLRLSCAASGFTFGGYVMGWYRQAPGKERELVAAINQTGGSTYYADSVKGRFTISRDNAKNTVYLQMNSLKPEDTAVYYCAALGYHGYRNYDYWGQGTQVTVSS | low polyreactivity
QVQLVESGGGLVQAGGSLRLSCAASGIIFRRYAMGWYRQAPGKEREFVAAIRYTGGGTYYADSVKGRFTISRDNAKNTVYLQMNSLKPEDTAVYYCAARDRDTRNYYWGQGTQVTVSS | high polyreactivity
QVQLVESGGGLVQAGGSLRLSCAASGRTFAAYAMGWYRQAPGKERELVAAITSGGGTYYADSVKGRFTISRDNAKNTVYLQMNSLKPEDTAVYYCAADYISVYGYEYYYWGQGTQVTVSS | high polyreactivity
QVQLVESGGGLVQPGGSLRLSCAASGRTFRWYAMGWYRQEPGKERELVAAISAGGGSTYYADSVKGRFTISRDNAKYTVSLQLTRVKPEDTAVYYCNRVAWNYGFGSSAYGYWGQGTQVTVSS | high polyreactivity
QVQLVESGGGLVQAGGSLRLSCAASGIIFISYVMGWYRQAPGKERELVAAITRSGDSTYYADSVKGRFTISRDNAKNTVYVQMNSLKPEDTAVYYCAAEHAYSYWDYDYWGQGTQVTVSS | high polyreactivity
QVQLVESGGGLVQAGGSLRLSCAASGRIFLKYSMGWYRQAPGKERELVAAISRGGSTYYADSVKGRFTISRDNAKNTVYLQMNSLKPEDTAVYYCAATSYRRTGYNYWGQGTQVTVSS | high polyreactivity
QVQLVESGGGLVQAGGSLRLSCAASGRIFGINVMGWYRPAPGKERELVARITGRGGRTYYADSVKGRFTMSRDNAKNTVYLQMNSLKPEDTAVYYCAADARYEAYDYWGQGTQVTVSS | high polyreactivity
QVQLVESGGGLVQAGGSLRLSCAASGFTFPNYAMGWYRQAPGKERELVAAITSGGGRTNYADSVKGRFTISRDNAKNTVYLQMNSLKPEDTAVYYCNAEKTYLGSRYRPYNYWGQGTQVTVSS | low polyreactivity
QVQLVESGGGLVQAGGSLRLSCAASGRTFYFNAMGWYRQAPRKESELVAAISSGASTYYADSVKGRFTISRDNAKNTVNLQMISLKPEDTAVYYCAAEFWTQWSGYEYWGQGTQVTVSS | high polyreactivity
QVQLVESGGGLVQAGGSLRLSCAASGSTFVYYAMGWYRQAPGKERELVAAITGSVDSTYYADSVKGRFTISRDNAKNTVYLQMNSLNPEDTAVYYCAAVTYSTYWGQGTQVTVSS | low polyreactivity
QVQLVESGGGLVQAGGSLRLSCAASGSTFGRNTMGWYRQAPGKERELVAAISKSGGSTRYADSVKGRFTISRDNAKNTVYLQMNSVKPEDTAVYYCAARVYSLGYGGDYWGQGTQVTVSS | high polyreactivity
QVQLVESGGGLVQAGGSLRLSCAASGRTFSGYAMGWYRQAPGKERELVAAISNSGGNTYYADSVKGRFTISRDNAKNTVYLQMNSLKAEDTAVYYSAVDSSSPYDYWGQGTQVTVSS | high polyreactivity
QVQLVESGGGLVQAGGSLRLSCAASGFIFKYNAMGWYRQAPGKERELVAAITSSGGSTYYADSVKGRFTISRDNAKNTVYLQMNSLKPEDTAVYYCNRVRDPSYDYWGQGTQVTVSS | high polyreactivity
QVQLVESGGGLVQAGGSLRLICAASGSIFRPNAMGWYRQAPGKEREFVASISGRVGSTYYADSVKGRFTISRDNAKNTVYLQMNSLKPEDTAVYYCAADFPTDKLSNFPITEYGYWGQGTQVTVSS | high polyreactivity
QVHLGESGGRLVQPGGSLRLSCAASGCTFCPYAMGWSRQAPGKARELVAAISNGGGPKYADSVKCRFTISRDNAKHTVYLQMNSLKPEDTAVYYCAKTLWTGRAWYDYWGQGTQVTVSS | high polyreactivity
QVQLVESGGGLVQAGGSLRLSCAASGGIFGINAMGWYRQAPWKERELVSAINLSGGRTYYADSVKGRFTISRDNSKNTVYLHMNSLKPEDTAVYYCAAYYGYSLYGHYEYWGQGTQVTVSS | high polyreactivity
QVQLVESGGGLVQAGGSLRLSSAASGITFRTNTMGWYRQAPGKERELVASISSGTRTNYADSVKGRFTISRDNAKNTVYLQMNSLKPEDTAVDYCAAGPPRNRYRNARFDYWGQGTQVTVSS | high polyreactivity
